# Publication PMC8857273
# Experiments:
# [1] = system: T1, His6-SUMO-MucR1 (Sinorhizobium fredii CCBAU45436 (SF45436)), ORF:2d010df8; assay: EMSA; settings: EMSA: 25 mM Tris pH 7.5, 100 mM KCl, 5 mM MgCl2, 5% glycerol, 0.05% dodecyl maltoside, 0.5 mg/mL BSA, 0.1 mg/mL sonicated salmon sperm DNA; room temperature …
# T1 sequence: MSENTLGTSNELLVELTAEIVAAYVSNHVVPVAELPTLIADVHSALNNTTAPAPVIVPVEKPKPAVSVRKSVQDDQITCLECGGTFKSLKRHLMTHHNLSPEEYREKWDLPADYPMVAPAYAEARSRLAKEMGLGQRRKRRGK
# [2] = system: T2, His6-SUMO-MucR2 (Sinorhizobium fredii CCBAU45436 (SF45436)), ORF:a672ea6f; assay: EMSA; settings: EMSA: 25 mM Tris pH 7.5, 100 mM KCl, 5 mM MgCl2, 5% glycerol, 0.05% dodecyl maltoside, 0.5 mg/mL BSA, 0.1 mg/mL sonicated salmon sperm DNA; room temperature …
# T2 sequence: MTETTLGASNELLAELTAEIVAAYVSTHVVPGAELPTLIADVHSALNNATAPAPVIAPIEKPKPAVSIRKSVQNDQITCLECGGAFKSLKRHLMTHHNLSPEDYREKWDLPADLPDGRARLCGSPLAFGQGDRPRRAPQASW
sequence,measurement,setting,value
CATATTAGATTCGGAAGGACCGACGACGCCCCTCGATCGCTGCCAGTCCACTGACGATTGTTTTGAAGTGTTCAGCTTCCTGGAGATATAACTTCCAAAAGCCGAAATAAAGTTTGGATCATCTTTGATTTTATACAGTTCTCTGCTACTGCCAGAGCGTCTCCGACTTGGTGCATTTTAGCAACAGGCGTCATTCGAAAGTAAAGCTCACTCATCTATATTCGAGCGATTGGCGGCATTGAAGGCACAG (double strand) [visN promoter probe (250 bp)],binding,[1],binds
same,binding,[2],no binding
